This is an account of results in patent publication US20190016818A1, “ANTIBODIES AGAINST GLYPICAN-3 AND THEIR USES IN CANCER DIAGNOSIS AND TREATMENT” (LA JOLLA BIOLOGICS, INC., priority 2015, published 2019).

Assay [1] deals with Hep3B hepatoma cells. Put plainly: Hep3B xenograft animal model with GES1 IgG. Format: in vivo, NOD-SCID mice. Conditions: 200 mg/Kg sorafenib orally. The protocol: GES1 scFv antibody was humanized to obtain humanized IgG antibody (GES1 humanized scFv antibody) and a xenograft animal model was conducted. Hep3B hepatoma cells were cloned to NOD-SCID mice. After the tumors were generated, 1 mg/Kg and 5 mg/Kg of GES1 IgG were i.v. injected into the mice once a week. Another group of the mice were orally administered with 200 mg/Kg sorafenic.

Assay [2] concerns HepG2 and HuH-7 ectopic xenografts. Conditions: cited from earlier work.
For assay [3], the system named is GPC3-positive Hep3B, HepG2 and HepJ5 cells. The experiment in a line: Flow cytometry binding analysis. Format: cell-based, human. Conditions: 100 μg/ml. The protocol: A total of 2×10^6 HepG2, Hep3B, cells were harvested and fixed with 2% paraformaldehyde as described previously with minor modification (Leu et al., 2010). The GPC3 molecule expressed in these […] cells were detected by adding purified chicken scFv antibodies, followed by mouse anti-HA (1:200) and FITC-conjugated goat anti-mouse antibodies (1:200). The results were analyzed using the FACScan flow cytometer Negative controls were performed by omitting the primary scFv antibodies, while positive controls were performed using commercial polyclonal anti-human GPC3 antibodies (1:200) instead of home-made chicken anti-GPC3 scFv antibodies. […] The partially purified scFv antibodies were examined for their binding activity to GPC3-positive Hep3B, HepG2 and HepJ5 cells.
On the technique in general: A flow cytometer gives signals particle by particle.

The subject of assay [4] is HepG2 cells. Put plainly: Cell cycle analysis (propidium iodide, FACS). Format: cell-based, human. The protocol:
Fixed cells were stained with propidium iodide and analyzed by FACS. The cell-cycle distribution of different phases was analyzed with FlowJo v 9.0. FIGS. 12 A, B and C show the results of cell cycle analysis. After treated with G5S1, GES1 or α-RTS6 (neg) scFv antibodies for 48 hrs, the adherent HepG2 cells were detached, washed, and exposed to 70% ethanol on 4° C. overnight. After washing, cells were incubated with […] propidium iodide and […] RNaseA. FACS was carried out and data were statistically analyzed by FlowJo software.

The subject of assay [5] is HepG2 cells. Put plainly: Soft agar colony formation assay, HepG2. Format: cell-based, human. Conditions: 0.5 μM scFv, 4 weeks. On the procedure: (§1) To determine the clonogenicity of HepG2, Hep3B, cells, 5×10^5 cells were pre-incubated in 2 ml DMEM medium containing anti-GPC3 antibodies at concentrations of 0.5-5 uM for 48 hr. Thereafter, cells were harvested, counted and transferred into semi-solid medium supplemented with 0.8% DMEM-methylcellulose and 30% FBS. Finally, 1 ml of the semi-solid medium containing 5×10^3 individual type of cell was plated onto 3.5 cm Petri-dishes. Triplicated Petri-dishes per treatment protocol will be cultivated for 5-7 days under standard conditions. Colony formation (clusters of >30 cells) will be visualized by staining with crystal violet and scored by an inverted microscope. […] The effect of GPC3 scFv on anchorage independent growth of HepG2 and Hep3B cells was explored. Hepatoma cells were treated with 0.5 μM of G5S1, GES1 or α-RTS6 (neg) scFv antibodies for 1 hr and suspended in medium containing 0.4% low melting agarose and plated onto solidified 0.9% agarose in medium at a density of 1×10^5 cells per dish. After incubating for 4 weeks, the number of colonies was counted and recorded. […] The exact reason for the distinct inhibition on 2 cell lines is presently not known.

For assay [6], the system named is HepG2 cells. Put plainly: Proliferation (MTT) assay. Format: cell-based, human. The protocol: A volume of 100 μl DMEM medium containing 5×10^3 HepG2, Hep3B, wherein cells were seeded onto 96-well plates. […] Thereafter, 10 μl of 3-[4,5-dimethylthiazol-2-yl]-2,5-diphenyltetrazolium bromide (MTT; 10 mg/ml) were added to determine the number of surviving cells. The supernatant was removed after 3 hr of incubation, and formazan crystals that had been developed were dissolved by adding of 100 μl acidified 2-propanol/well (0.04 N HCl). Extinction was measured by an automated microtiter plate reader at 540 nm. Unrelated anti-snake venom antibodies (neg) were included in control experiments. […] HepG2 cells were cultured in the medium containing G5S1, GES1, GES6 or control scFv antibodies at final concentrations of 0.1 μM for 1-6 days.

Assay [7] relates to Hep3B cells. Put plainly: Cell migration (wounded monolayer) assay. Format: cell-based, human. The following applies: Hep3B monolayers wounded, 0.5 uM scFv, 24 hr. The protocol:
For cell migration assays, 1×10^3 cells were incubated with anti-GPC3 antibodies at concentrations of 1 to 200 μg/ml for 48 hr before being transferred into a transwell migration system. The cells were plated onto a polycarbonate filter membrane with a pore size of 8 μm (upper layer) and incubated for different time interval at 37° C. in 5% CO2 incubator. Serum free medium containing 0.5 mM EDTA was used for washing off the cells from the lower part of the membrane to lower wells. The cells in the lower wells were collected with centrifugation at 3000 g for 5 min and perform direct cell counting under microscope. The mean growth rate (MGR) of cells after migration through the polycarbonate filter was determined by the equation: MGR=log 2 Nt−log2 N0/t, with N0 as initial cell number, Nt as final cell number and t as time period of cell incubation in days. […] To explore whether the GPC3 protein is essential for cell migration, Hep3B cells were cultured until confluence. The monolayers were wounded, cultured with medium containing 0.5 uM of G5 S1 or GES1 and two controls (NC-70sc or NC-spE) scFv antibodies and analyzed after 24, hr. […] The effect of G5S1 scFv was minimal and reached to the basal level obtained in medium without any scFv antibody.

In assay [8] the target is GPC3 in HepG2 cells (Homo sapiens, UniProt P51654). Put plainly: Immunoprecipitation assay, HepG2 cell lysate. Format: binding. Also on record: endogenous in cells; host or cells: HepG2. The following applies: HepG2 total cell lysate; data very preliminary. The protocol: (§2) Antibody beads were prepared by covalently linking 100 ul of Ni-NTA Sepharose (Amersham Biosciences) and 1 mg of anti-GPC3 scFv antibodies with 20 mM dimethyl pimelimidate. Then, 500 ul of HepG2 and Hep3B cell lysates were be mixed with 25 ul of antibody beads and incubated for 2 hr at 4° C. After extensive washing with PBST, antibody beads will be resuspended in 50 ul of SDS-PAGE loading buffer, boiled for 5 min, and subsequently subjected to western blotting analysis. […] The total cell lysates of Hep3B and HepG2 were incubated with a mixture of his-beads and G5S1, GES1, GES6 or 70SC control scFv antibodies individually. After washing, the his-beads complex was subjected to SDS-PAGE and western blot analysis. […] By contrast, the protein in HepG2 cells was precipitated by GES1, G5S1 and GES6 scFv antibodies. However, the data were very preliminary and need further verification.

For assay [9], the system named is Hep3B cells. The experiment in a line: Soft agar colony formation assay, Hep3B. The following applies: 0.5 μM scFv, 4 weeks. Format: cell-based, human. The protocol:
as §1

Assay [10] relates to GPC3-positive HepG2 cells and Hep 3B cells. Put plainly: Immunofluorescence staining binding analysis. Format: cell-based, human. Conditions: Hep 3B cells (FIG. 9A) and Hep G2 cells (FIG. 9B). On the procedure:
HepG2, Hep3B, cells (2×10^5 cells/ml) were seeded on cover glass and fixed by incubating with equal volume of 8% freshly prepared ice-cold paraformaldehyde on ice for 15 min. After fixing, the cells were dehydrated in a sequential treatment of 70%, 95% and 99% methanol and rehydrated with 95% and 70% methanol. The slides were then overlaid with blocking buffer (1% BSA in 1×PBS) at room temperature (RT) for 1 hr. Following washing with 1×PBS, specific monoclonal mouse or scFv antibodies were incubated with cells at RT for one additional hr. Finally, their binding to GPC3 protein was detected by mouse anti-HA antibodies, followed by FITC-conjugated goat anti-mouse antibodies. Nuclei were counterstained with PI solution in parallel. The slides were examined using a Confocal Spectral Microscope Imaging System (TCS SP5, Leica). […] The partially purified scFv antibodies were examined for their binding activity to GPC3-positive HepG2 cells and Hep 3B cells.

Assay [11] deals with T1, GPC3 (Homo sapiens, UniProt P51654). The experiment in a line: Western blot of GPC3 extracellular domain protein and hepatoma cell lysates. Format: binding. The arrangement: purchased. Conditions: commercial GPC3 extracellular domain protein under reducing condition; lysates of hepatoma cell lines. The protocol:
(§3) Nitrocellulose membranes were blocked with 5% skim milk in TBST for 1 hr. Polyclonal goat anti-chicken IgY light chain antibodies were added at 1:5000 dilution and incubated for an additional hr. The membranes were washed with TBST three times and the bound antibodies were detected by adding horseradish peroxidase (HRP)-conjugated donkey anti-goat Ig antibodies at 1:3000 dilutions. After three washings, the membranes were developed with diaminobenzidine (DAB) substrate until the desired intensity was reached. The IgY antibodies or the E. coli-expressed scFv antibodies were purified and incubated with the purified GPC3 protein or cellular lysates of GPC3-positive HepG2 and Hep3B cells immobilized on nitrocellulose membranes or ELISA plate wells. Their binding was subsequently detected by adding goat anti-mouse IgG or anti-chicken IgY light chain followed by HRP-conjugated donkey anti-goat Ig antibodies as described above.
On the technique in general: In western blotting, separated proteins are transferred to a membrane and probed.

For assay [12], the target named is T2, GPC3 in Hep3B cells (Homo sapiens, UniProt P51654).
T2 construct: endogenous in cells; host or cells: Hep3B
The experiment in a line: Immunoprecipitation assay, Hep3B cell lysate. Format: binding. The following applies: Hep3B total cell lysate; data very preliminary. On the procedure:
as §2

The test system of assay [13] is Hep3B xenograft. The experiment in a line: Tumor xenograft model, Ki-67 immunohistochemistry of tumor tissue. Format: in vivo, NOD-SCID mice. Conditions: 800 ug/mouse/per time i.v.; compared to untreated groups. On the procedure:
NOD-SCID mice were used. Briefly, 4-week-old female […] mice were injected subcutaneously with 4×10^6 of HepG2 and Hep3B cancer cells at a single dorsal site. At day 14, tumor-bearing mice were randomized into experimental groups (5 per group) and treated with anti-GPC3 antibodies and positive control with sorafenib accordingly. 400 ug or 800 ug of antibodies were given through intravenous (i.v.) injection every 3 days for 3 weeks. Tumor size was measured every 2 days with calipers until animals are sacrificed. At the time of sacrifice, tumors were dissected and weighted.
Tissue sections from xenograft tumor tissues in mice were de-waxed in xylene and rehydrated through graded alcohols. The antigen retrieval was carried out by heating the rehydrated tissues in 10 mM sodium citrate (pH 6.0) for 20 min. After washing with buffer containing 10 mM Tris-HCl (pH 7.4) and 150 mM sodium chloride, the sections were treated with 3% hydrogen peroxide for 5 min. Anti-Ki-67 antibodies (commercial polyclonal antibody) was be applied for 1 hr at room temperature. Optimal horseradish peroxidase-conjugated secondary antibodies and diaminobenzidine were added sequentially to detect the Ki-67 proliferation marker expression in the examined tissues. The slides were counterstained with GM hematoxylin solution. […]

Assay [14] concerns the target T1, GPC3. Put plainly: ELISA binding to commercially available GPC3 immobilized on plate wells. The arrangement: analysis of commercial GPC3_extracellular domain (ECD) and truncated (C185) proteins; purchased. Conditions: partially purified scFv. The protocol:
as §3
HepG2, Hep3B, cells (2×10^5 cells/ml) was seeded on cover glass and fixed by incubating with equal volume of 8% freshly prepared ice-cold paraformaldehyde on ice for 15 min. After fixing, the cells were dehydrated in a sequential treatment of 70%, 95% and 99% methanol and rehydrated with 95% and 70% methanol. […] Finally, their binding to GPC3 protein was detected by mouse anti-HA antibodies, followed by FITC-conjugated goat anti-mouse antibodies. […]
On the technique in general: An ELISA detects its analyte on a solid surface through an enzyme-linked reagent.

With `CNC(=O)c1cc(Oc2ccc(NC(=O)Nc3ccc(Cl)c(C(F)(F)F)c3)cc2)ccn1` [sorafenib], in assay [1], the tumor growth inhibition came to 48.8%.
For the molecule hGC33: Humanized GC33, the “efficacy against the HepG2 xenograft relative to GC33” value in assay [2] is “as effective as GC33”.

B1: GES1: chicken anti-GPC3 scFv antibody; heavy chain SEQ ID NO: 30, light chain SEQ ID NO: 38 (antibody, V domains shown)
VH: EVQLLESGGGLVQPGGSLRLSCAASGFTFSSFNMFWVRQAPGKGLEWVSWISSTGSRTKYADSVKGRFTISRDNSKNTLYLQMNSLRAEDTATYYCAKSASRGAGRIDAWGRGTLVTVSS
VL: ALTQPPSASGSPGQSITISCTGTGGSYGWYQQHAGKAPKLVIYNNNKRPSGVPDRFSGSKSGNTASLTVSGLQTDDEAVYYCGSRDSSYFGIFGGGTKLTVL
modifications: scFv linker
Take B1: the “binding signal to hepatoma cells (flow cytometry)” value in assay [3] was “various but significant binding signal”. In addition, in assay [4] (0.5 μM, 48 hrs), the cell cycle arrest result was “arrested in G1 phase”. Besides, the “cell population in subG1 stage” value in assay [4] (treated 48 hrs) is 28.8%. The entries for the “inhibitory effect on colony formation” value in assay [5] and in [9] were “significant inhibitory effort on colony formation” and “not as obvious”, respectively. Further, in assay [6] (0, 0.5, 1, 2, 4 and 8 μM for 3 days), the “inhibition of cell proliferation, concentration dependence” value is “inhibited the cell proliferation in a dosage-dependent manner”. Also, the “suppression on cell proliferation” value in [6] (HepG2 cells, 0.1 μM, day 6) was “approximately 60%”. Besides, the “effect on cell migration” value in assay [7] was “partial inhibitory effect”. The “precipitation of protein with predicted molecular weight of GPC3” value in assay [8] and in [12] was “precipitated” each time. The “binding signal to cell surface (immunofluorescence)” value in assay [10] is given as “various but significant binding signal”. In addition, the “fragment of GPC3 identified on western blot” value in [11] is “can identify C-terminus fragment of GPC3 and GPC3 in cellular lysates”. In assay [13], the “Ki-67 expression in tumor sections” value is “reduced level of Ki-67 expression”. Also, the “binding activity to GPC3 on ELISA” value in assay [14] is on record as “reacted significantly with GPC3”.
